{"source": "patent US20250347696A1", "about": "“SELF-ACTIVATING FÖRSTER RESONANCE ENERGY TRANSFER (saFRET) BIOSENSORS AND METHODS FOR MAKING AND USING THEM” (The Regents of the University of California, priority 2021, published 2025)", "key": {"[1]": {"target": "improved ZAP70 FRET biosensor with substrate … (SEQ ID NO:113), kinase domain removed"}, "[2]": {"target": "parental (WT) ZAP70 FRET biosensor with LAT Y191 substrate … (SEQ ID NO:107), kinase domain removed", "assay": "cell-based or functional assay"}, "[3]": {"target": "improved ZAP70 FRET biosensor with substrate … (SEQ ID NO:113), kinase domain removed", "assay": "cell-based or functional assay"}}, "data": [{"binder": "ZAP70 kinase (Zeta-chain-associated protein kinase 70), endogenous in Jurkat T cells (protein) MPDPAAHLPFFYGSISRAEAEEHLKLAGMADGLFLLRQCLRSLGGYVLSLVHDVRFHHFPIERQLNGTYAIAGGKAHCGPAELCEFYSRDPDGLPCNLRKPCNRPSGLEPQPGVFDCLRDAMVRDYVRQTWKLEGEALEQAIISQAPQVEKLIATTAHERMPWYHSSLTREEAERKLYSGAQTDGKFLLRPRKEQGTYALSLIYGKTVYHYLISQDKAGKYCIPEGTKFDTLWQLVEYLKLKADGLIYCLKEACPNSSASNASGAAAPTLPAHPSTLTHPQRRIDTLNSDGYTPEPARITSPDKPRPMPMDTSVYESPYSDPEELKDKKLFLKRDNLLIADIELGCGNFGSVRQGVYRMRKKQIDVAIKVLKQGTEKADTEEMMREAQIMHQLDNPYIVRLIGVCQAEALMLVMEMAGGGPLHKFLVGKREEIPVSNVAELLHQVSMGMKYLEEKNFVHRDLAARNVLLVNRHYAKISDFGLSKALGADDSYYTARSAGKWPLKWYAPECINFRKFSSRSDVWSYGVTMWEALSYGQKPYKKMKGPEVMAFIEQGKRMECPPECPPELYALMSDCWIYKWEDRPDFLTVEQRMRACYYSLASKVEGPPGSTQKAEAACA", "values": [{"measurement": "increase in sensitivity compared to the parental template (SREYVNVSGEL)", "setting": "[1]", "result": "> 4", "unit": "fold"}, {"measurement": "ECFP/FRET ratio change (sensitivity) of the biosensor in Jurkat T cells upon CD3/CD28-antibody stimulation", "setting": "[2]", "result": 5.8, "unit": "%"}, {"measurement": "ECFP/FRET ratio change (sensitivity) of the biosensor in Jurkat T cells upon CD3/CD28-antibody stimulation", "setting": "[3]", "result": 25, "unit": "%"}]}]}
